Data taken from doi:10.1101/379156, “Probing the Modularity of Megasynthases by Rational Engineering of a Fatty Acid Synthase (FAS) Type I” (bioRxiv, 2018).

B1: mFAS gamma-module, construct 7 (2-1517+1870-2195) (domain or fragment, Mus musculus, UniProt P19096 2-2195, looked up)
chain: EEVVIAGMSGKLPESENLQEFWANLIGGVDMVTDDDRRWKAGLYGLPKRSGKLKDLSKFDASFFGVHPKQAHTMDPQLRLLLEVSYEAIVDGGINPASLRGTNTGVWVGVSGSEASEALSRDPETLLGYSMVGCQRAMMANRLSFFFDFKGPSIALDTACSSSLLALQNAYQAIRSGECPAALVGGINLLLKPNTSVQFMKLGMLSPDGTCRSFDDSGSGYCRSEAVVAVLLTKKSLARRVYATILNAGTNTDGSKEQGVTFPSGEVQEQLICSLYQPAGLAPESLEYIEAHGTGTKVGDPQELNGITRSLCAFRQAPLLIGSTKSNMGHPEPASGLAALTKVLLSLEHGVWAPNLHFHNPNPEIPALLDGRLQVVDRPLPVRGGNVGINSFGFGGSNVHVILQPNTRQAPAPTAHAALPHLLHASGRTLEAVQDLLEQGRQHSQDLAFVSMLNDIAATPTAAMPFRGYTVLGVEGRVQEVQQVSTNKRPLWFICSGMGTQWRGMGLSLMRLDSFRESILRSDEAVKPLGVKVSDLLLSTDERTFDDIVHAFVSLTAIQIALIDLLTSVGLKPDGIIGHSLGEVACGYADGCLSQREAVLAAYWRGQCIKDAHLPPGSMAAVGLSWEECKQRCPAGVVPACHNSEDTVTISGPQAAVNEFVEQLKQEGVFAKEVRTGGLAFHSYFMEGIAPTLLQALKKVIREPRPRSARWLSTSIPEAQWQSSLARTSSAEYNVNNLVSPVLFQEALWHIPEHAVVLEIAPHALLQAVLKRGVKSSCTIIPLMKRDHKDNLEFFLTNLGKVHLTGINVNPNALFPPVEFPAPRGTPLISPHIKWDHSQTWDVPVAEDFPNGSSSSSATVYSIDASPESPDHYLVDHCIDGRVIFPGTGYLCLVWKTLARSLGLSLEETPVVFENVSFHQATILPKTGTVALEVRLLEASHAFEVSDTGNLIVSGKVYLWEDPNSKLFDHPEVPTPPESASVSRLTQGEVYKELRLRGYDYGPQFQGICEATLEGEQGKLLWKDNWVTFMDTMLQVSILGSSQQSLQLPTRVTAIYIDPATHRQKVYRLKEDTQVADVTTSRCLGITVSGGIHISRLQTTATSRRQQEQLVPTLEKFVFTPHMEAECLSESTALQKELQLCKGLARALQTKATQQGLKAAMLGQEDPPQHGLPRLLAAACQLQLNGNLQLELGEALAQERLLLPEDPLISGLLNSQALKACVDTALENLSTLKMKVAEVLAGEGHLYSRIPALLNTQPMLQLEYTATDRHPQALKDVQTKLQQHDVAQGQWNPSDPAPSSLGALDLLVCNCALATLGDPALALDNMVAALKEGGFLLVHTVLKGHALGETLACLPSEVQPAPSLLSQEEWESLFSRKALHLVGLKRSFYGTALFLCRRAIPQEKPIFLSVEDTSFQWVDSLKSTLATSSSQPVWLTAMDCPTSGVVGLVNCLRKEPGGHRIRCILLSNLSNTSHAPKLDPGSPELQQVLKHDLVMNVYRDGAWGAFRHFQLEQDKPSKTFCPAHKSYIITGGLGGFGLELARWLVLRGAQRLVLTSRSGIRTGYQAKHIREWRRQGIQVLVSTSNVSSLEGARALIAEATKLGPVGGVFNLAMVLRDAMLENQTPELFQDVNKPKYNGTLNLDRATREACPELDYFVAFSSVSCGRGNAGQTNYGFANSTMERICEQRRHDGLPGLAVQWGAIGDVGIVLEAMGTNDTVIGGTLPQRISSCMEVLDLFLNQPHAVLSSFVLAEKKAVAHGDGDTQRDLVKAVAHILGIRDLAGINLDSTLADLGLDSLMGVEVRQILEREHDLVLPMREVRQLTLRKLQEMSSKTDSATDTT
notes: murine fatty acid synthase 2-2195 with the ER domain deleted (P1517 bridged to S1870); Made from construct 6 as template; also called γ-module
B2: mFAS beta-module, construct 8 (2-858+1104-1517+1870-2195) (domain or fragment, Mus musculus, UniProt P19096 2-2195, looked up)
chain: EEVVIAGMSGKLPESENLQEFWANLIGGVDMVTDDDRRWKAGLYGLPKRSGKLKDLSKFDASFFGVHPKQAHTMDPQLRLLLEVSYEAIVDGGINPASLRGTNTGVWVGVSGSEASEALSRDPETLLGYSMVGCQRAMMANRLSFFFDFKGPSIALDTACSSSLLALQNAYQAIRSGECPAALVGGINLLLKPNTSVQFMKLGMLSPDGTCRSFDDSGSGYCRSEAVVAVLLTKKSLARRVYATILNAGTNTDGSKEQGVTFPSGEVQEQLICSLYQPAGLAPESLEYIEAHGTGTKVGDPQELNGITRSLCAFRQAPLLIGSTKSNMGHPEPASGLAALTKVLLSLEHGVWAPNLHFHNPNPEIPALLDGRLQVVDRPLPVRGGNVGINSFGFGGSNVHVILQPNTRQAPAPTAHAALPHLLHASGRTLEAVQDLLEQGRQHSQDLAFVSMLNDIAATPTAAMPFRGYTVLGVEGRVQEVQQVSTNKRPLWFICSGMGTQWRGMGLSLMRLDSFRESILRSDEAVKPLGVKVSDLLLSTDERTFDDIVHAFVSLTAIQIALIDLLTSVGLKPDGIIGHSLGEVACGYADGCLSQREAVLAAYWRGQCIKDAHLPPGSMAAVGLSWEECKQRCPAGVVPACHNSEDTVTISGPQAAVNEFVEQLKQEGVFAKEVRTGGLAFHSYFMEGIAPTLLQALKKVIREPRPRSARWLSTSIPEAQWQSSLARTSSAEYNVNNLVSPVLFQEALWHIPEHAVVLEIAPHALLQAVLKRGVKSSCTIIPLMKRDHKDNLEFFLTNLGKVHLTGINVNPNALFPPVEFPAPRGTPLISPHIKWDHSQTWDVPVAEDFPNGSSSSSSRRQQEQLVPTLEKFVFTPHMEAECLSESTALQKELQLCKGLARALQTKATQQGLKAAMLGQEDPPQHGLPRLLAAACQLQLNGNLQLELGEALAQERLLLPEDPLISGLLNSQALKACVDTALENLSTLKMKVAEVLAGEGHLYSRIPALLNTQPMLQLEYTATDRHPQALKDVQTKLQQHDVAQGQWNPSDPAPSSLGALDLLVCNCALATLGDPALALDNMVAALKEGGFLLVHTVLKGHALGETLACLPSEVQPAPSLLSQEEWESLFSRKALHLVGLKRSFYGTALFLCRRAIPQEKPIFLSVEDTSFQWVDSLKSTLATSSSQPVWLTAMDCPTSGVVGLVNCLRKEPGGHRIRCILLSNLSNTSHAPKLDPGSPELQQVLKHDLVMNVYRDGAWGAFRHFQLEQDKPSKTFCPAHKSYIITGGLGGFGLELARWLVLRGAQRLVLTSRSGIRTGYQAKHIREWRRQGIQVLVSTSNVSSLEGARALIAEATKLGPVGGVFNLAMVLRDAMLENQTPELFQDVNKPKYNGTLNLDRATREACPELDYFVAFSSVSCGRGNAGQTNYGFANSTMERICEQRRHDGLPGLAVQWGAIGDVGIVLEAMGTNDTVIGGTLPQRISSCMEVLDLFLNQPHAVLSSFVLAEKKAVAHGDGDTQRDLVKAVAHILGIRDLAGINLDSTLADLGLDSLMGVEVRQILEREHDLVLPMREVRQLTLRKLQEMSSKTDSATDTT
notes: murine fatty acid synthase 2-2195 with the DH domain (S858 linked with S1104) and the ER domain (P1517 bridged to S1870) deleted; Made from construct 7; also called β-module

Target: the molecule itself
Test: SEC; as a1, but samples not incubated at 37 °C before the SEC run; monomer to dimer

Row | Protein | stoichiometry N
1 | B1 | 2
2 | B2 | 2
